In patent US20240376207A1 (JIANGSU HENGRUI PHARMACEUTICALS, published 2024):
Where two headings read alike, the source gives them in different places.

T1: human TIGIT recombinant protein (human, UniProt Q495A1 22-141, limits assumed)
T1 construct: construct not described; also called human TIGT recombinant protein
T1 sequence (looked up): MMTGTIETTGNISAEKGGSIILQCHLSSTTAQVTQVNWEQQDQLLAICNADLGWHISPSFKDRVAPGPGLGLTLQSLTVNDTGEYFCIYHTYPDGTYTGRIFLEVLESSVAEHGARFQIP

T2: human TIGIT expressed on cells (human, UniProt Q495A1 22-244)
T2 construct: whole, on cells; also called cells overexpressing human TIGIT
T2 sequence (looked up): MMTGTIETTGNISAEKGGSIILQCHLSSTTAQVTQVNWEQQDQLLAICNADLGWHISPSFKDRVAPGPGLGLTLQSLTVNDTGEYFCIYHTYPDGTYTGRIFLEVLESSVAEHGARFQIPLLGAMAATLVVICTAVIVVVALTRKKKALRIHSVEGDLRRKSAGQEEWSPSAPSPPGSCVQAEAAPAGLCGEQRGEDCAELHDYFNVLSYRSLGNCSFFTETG

T3: human IgG1 Fc-tagged mouse PVRIG (m-PVRIG-hIgG1 Fc) (mouse, UniProt A0A1B0GS01 35-165)
T3 construct: bought from Acrobiosystems; also called Mouse PVRIG-Fc; mouse PVRIG recombinant protein; not shown: human IgG1 Fc tag of the Acrobiosystems product, and any linker to it
T3 sequence: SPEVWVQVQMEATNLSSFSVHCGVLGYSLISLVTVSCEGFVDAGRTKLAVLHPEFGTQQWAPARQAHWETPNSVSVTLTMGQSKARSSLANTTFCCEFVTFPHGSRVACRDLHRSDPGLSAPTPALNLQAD

T4: his-tagged cynomolgus monkey PVRIG (cyno-PVRIG-his) recombinant protein (cynomolgus monkey)
T4 construct: expressed in HEK293, purified by Ni-NTA; also called Monkey PVRIG-his; cynomolgus monkey PVRIG recombinant protein
T4 chain: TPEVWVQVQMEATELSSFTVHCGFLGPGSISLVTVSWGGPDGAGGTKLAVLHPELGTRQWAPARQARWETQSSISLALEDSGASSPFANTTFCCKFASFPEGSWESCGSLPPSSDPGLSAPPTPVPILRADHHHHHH

T5: human PVRIG expressed on cells (human, UniProt Q6DKI7 41-326)
T5 sequence (looked up): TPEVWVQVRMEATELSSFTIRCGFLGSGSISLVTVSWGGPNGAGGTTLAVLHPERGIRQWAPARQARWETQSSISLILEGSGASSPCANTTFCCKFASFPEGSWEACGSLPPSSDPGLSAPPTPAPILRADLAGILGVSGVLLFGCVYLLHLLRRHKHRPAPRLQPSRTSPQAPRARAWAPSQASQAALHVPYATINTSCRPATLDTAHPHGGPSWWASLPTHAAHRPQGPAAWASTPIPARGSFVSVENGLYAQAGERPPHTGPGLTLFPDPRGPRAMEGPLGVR

T6: cynomolgus monkey PVRIG expressed on cells (cynomolgus monkey, UniProt A0A2K5WVV8 1-322)
T6 construct: whole, on cells; also called Monkey PVRIG FACS; cells overexpressing cynomolgus monkey PVRIG
T6 sequence: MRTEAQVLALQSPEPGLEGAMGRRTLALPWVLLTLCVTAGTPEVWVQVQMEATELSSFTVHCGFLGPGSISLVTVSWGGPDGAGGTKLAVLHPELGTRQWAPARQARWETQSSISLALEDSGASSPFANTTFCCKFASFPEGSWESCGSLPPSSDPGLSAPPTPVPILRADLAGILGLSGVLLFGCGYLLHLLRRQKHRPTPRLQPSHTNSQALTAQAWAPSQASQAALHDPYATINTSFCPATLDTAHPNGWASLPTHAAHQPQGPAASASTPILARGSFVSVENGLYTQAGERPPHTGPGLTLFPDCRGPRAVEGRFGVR

T7: his-tagged human PVRIG (h-PVRIG-his) recombinant protein (human, UniProt Q6DKI7 41-171, limits assumed)
T7 construct: bought from Acrobiosystems; also called Human PVRIG-his; human PVRIG recombinant protein; not shown: his tag
T7 sequence (looked up): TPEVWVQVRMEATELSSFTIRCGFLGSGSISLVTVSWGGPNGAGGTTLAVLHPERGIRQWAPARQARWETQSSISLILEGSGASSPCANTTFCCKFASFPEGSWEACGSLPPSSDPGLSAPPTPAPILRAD


Key:
[1] = biological target: T1, human TIGIT recombinant protein; assay: ELISA, coated antigen
Description: (§1) A human, cynomolgus monkey, or mouse PVRIG protein (at a concentration of 1 μg/mL) was coated on a 96-well microplate at 100 μL per well, and incubated overnight at 4° C. The plate was washed three times with wash buffer at 250 μL per well. For each wash, the plate was shaken for 10 s to ensure adequate cleaning. A blocking solution (PBS+0.05% Tween20+1% BSA) was added at 300 μL/well, and the plate was incubated at room temperature for 1 h. The plate was washed three times with wash buffer at 250 μL per well. For each wash, the plate was shaken for 10 s to ensure adequate cleaning. Dilutions of the test anti-PVRIG antibodies were added at 100 μL/well. The plate was incubated at 37° C. for 1 h. The plate was washed three times with wash buffer at 250 μL per well. The […] anti-human IgG secondary antibody (Sigma, A8667) was added at 100 μL per well. The plate was incubated at 37° C. for 1 h. The plate was washed three times with wash buffer at 250 μL per well. TMB was added at 100 μL/well, and the plate was incubated in the dark for 15 min. 0.16 M sulfuric acid was added at 50 μL/well. The OD values at 450 nm were read by using a Thermo MultiSkanFc microplate reader, and the EC₅₀ values of the binding of the anti-PVRIG antibodies to PVRIG were calculated.
(§2) The experiments were carried out according to the methods of Example 4, Example 5 and Example 6 (corresponding receptors and ligands were replaced with human TIGIT and human PVR), and the results are shown in Table 27.

[2] = biological target: T2, human TIGIT expressed on cells; assay: FACS, cells overexpressing target
Description: (§3) The expression plasmid carrying human or cynomolgus monkey PVRIG gene sequence was transfected into HEK293 cells, and the over-expressing stable transfection monoclonal cell strain was obtained by antibiotic screening and infinite dilution. Overexpressing cells were seeded into a 96-well plate at 2×10⁵ cells/per well. The cells were centrifuged at 300 g for 5 min, the supernatant was then removed, 100 μL of the test antibody was added, and the mixture was incubated at 4° C. for 1 h. The mixture was centrifuged, the supernatant was removed, the plate was washed 3 times with 200 μL of wash buffer (PBS+2% FBS), and then 100 μL of an anti-human IgG secondary antibody (Invitrogen, A-11013) labeled with Alexa Fluor 488 diluted at 1:500 was added. The mixture was incubated at 4° C. for 1 h. The plate was centrifuged, and the supernatant was removed. The plate was washed 3 times with 200 μL of wash buffer (PBS+2% FBS). The cells were resuspended in 100 μL of PBS and tested on a flow cytometer (BD FACS Calibur or BD FACS Canto_II).
as §2

[3] = biological target: T1, human TIGIT recombinant protein; assay: competition ELISA; human TIGIT, competitor human PVR
Description: The h-PVRIG-mIgG2a Fc protein (at a concentration of 1 μg/mL) was coated on the 96-well microplate at 100 μL per well, and incubated overnight at 4° C. The plate was washed three times with wash buffer at 250 μL per well. For each wash, the plate was shaken for 10 s to ensure adequate cleaning. A blocking solution was added at 300 μL/well, and the plate was incubated at room temperature for 1 h. The plate was washed three times with wash buffer at 250 μL per well. For each wash, the plate was shaken for 10 s to ensure adequate cleaning. 50 μL of diluted test anti-PVRIG antibody and 50 μL of his-tagged ligand PVRL2 were added to each well, and the plate was incubated at 37° C. for 1 h. The plate was washed three times with wash buffer at 250 μL per well. The HRP-labeled anti-his-tagged secondary antibody (Genscrpit) diluted at 1:2000 was added at 100 μL per well. The plate was incubated at 37° C. for 1 h. The plate was washed three times with wash buffer at 250 μL per well. TMB was added at 100 μL/well, and the plate was incubated in the dark for 15 min. 0.16 M sulfuric acid was added at 50 μL/well. OD values at 450 nm were measured using a Thermo MμtLtiSkanFc microplate reader, and the IC₅₀ values of the anti-PVRIG antibodies blocking the binding of PVRIG to PVRL2 were calculated.
as §2

[4] = biological target: T3, human IgG1 Fc-tagged mouse PVRIG …; assay: ELISA, coated antigen
Description: (§4) ELISA assay was used to detect binding properties of anti-PVRIG antibodies. […] After the antibody was added, the activity of the binding of the antibody to the antigen was detected by adding a secondary antibody (HRP-conjugated anti-primary antibody Fc antibody) and HRP substrate TMIB.
as §1

[5] = biological target: T4, his-tagged cynomolgus monkey PVRIG …; assay: ELISA, coated antigen
Description: as §4, §1

[6] = biological target: T5, human PVRIG expressed on cells; assay: cell-based or functional assay
[7] = biological target: T5, human PVRIG expressed on cells; assay: cell-based or functional assay; remark: listed apart in the source
[8] = biological target: T5, human PVRIG expressed on cells; assay: FACS, HEK293 cells overexpressing target
Description: as §3
(§5) Binding of the humanized anti-PVRIG antibodies to human or cynomolgus monkey PVRIG was detected by using a flow cytometer according to the method of Example 5.

[9] = biological target: T6, cynomolgus monkey PVRIG expressed on …; assay: FACS, HEK293 cells overexpressing target
Description: as §3, §5

[10] = biological target: T7, his-tagged human PVRIG (h-PVRIG-his) …; assay: BLI (Fortebio), antibody on Protein A sensor, 1:1 fit
Description: A Protein A biosensor (Fortebio, #18-5010) was immersed in 200 μL of KB buffer (PBS, pH 7.4, 0.02% tween-20, 0.1% BSA) for 60 s for the wetting treatment. Then, the anti-PVRIG antibody was diluted to 10 μg/mL with the KB buffer, and the sensor was immersed in 200 μL of the solution until the reading was 1.2 nm. The sensor was immersed in the KB buffer for 100 s to elute excess antibody. The his-tagged human PVRIG was diluted in a 2-fold gradient to 64 nM-4 nM with the KB buffer. The sensor was immersed in the solution for 300 s for binding. The sensor was immersed in the KB buffer for 600 s for dissociation. The data were fitted in a dynamic 1:1 binding mode.
The affinity of the humanized anti-PVRIG antibodies for human PVRIG was detected according to the method of Example 7. All the antibodies listed in the Table have high affinity for human PVRIG.

[11] = biological target: T5, human PVRIG expressed on cells; assay: cell-based or functional assay; remark: listed apart in the source

| Binder | EC50 [1] | EC50 [2] | IC50 [3] | PVRIG reporter gene cell activity EC50 [6] | NK92 killing of K562, killing activity (%), 4 nM antibody [7] | NK92 killing of K562, killing activity (%), 20 nM antibody [7] | NK92 killing of K562, killing activity (%), 100 nM antibody [7] | EC50 [8] | EC50 [9] | Kd [10] | koff [10] | kon [10] | other results |
| --- | --- | --- | --- | --- | --- | --- | --- | --- | --- | --- | --- | --- | --- |
| anti-PVRIG/TIGIT bispecific antibody 1708-151-1 (bispecific antibody, human IgG4 S228P, kappa) heavy: not shown light: DIQMTQSPSSLSASVGDRVTITCRASENIYSYLAWYQQKPGKSPKLLIYNARTLAEGVPSRFSGSGSGTDFTLTISSLQPEDFATYYCQYHSGSPLPFGGGTKVEIKRTVAAPSVFIFPPSDEQLKSGTASVVCLLNNFYPREAKVQWKVDNALQSGNSQESVTEQDSKDSTYSLSSTLTLSKADYEKHKVYACEVTHQGLSSPVTKSFNRGEC | 0.101 nM | 1.51 nM | 0.96 nM |  |  |  |  |  |  |  |  |  |  |
| anti-PVRIG/TIGIT bispecific antibody 1708-151-2 (bispecific antibody, human IgG4 S228P, kappa) heavy: not shown light: DIQMTQSPSSLSASVGDRVTITCRASENIYSYLAWYQQKPGKSPKLLIYNARTLAEGVPSRFSGSGSGTDFTLTISSLQPEDFATYYCQYHSGSPLPFGGGTKVEIKRTVAAPSVFIFPPSDEQLKSGTASVVCLLNNFYPREAKVQWKVDNALQSGNSQESVTEQDSKDSTYSLSSTLTLSKADYEKHKVYACEVTHQGLSSPVTKSFNRGEC | 0.09 nM | 1.27 nM | 1.04 nM |  |  |  |  |  |  |  |  |  |  |
| anti-PVRIG antibody 20 (antibody, human IgG4 S228P, F234A L235A, V domains shown, no light chain) VH: DVQLVESGGGSVQAGGSLRLSCVASRYTSRTDCMGWFRQAPGKEHEGVAHIDSDGIPRYVDSVKGRFTISQDHAKNTLYLQMNSLKPEDSATYYCVVGFKFDDDYCAPNDWGQGTQVTVSS |  |  |  |  |  |  |  |  |  |  |  |  | binding result [4]: no binding; EC50 [5]: 0.14 nM |
| humanized anti-PVRIG antibody 20H5 (antibody, human IgG4 S228P, F234A L235A, V domains shown) VH: EVQLVESGGGLVQPGGSLRLSCAASGYTSRTDCMGWFRQAPGKEHEGVAHIDSDGIPRYVDSVKGRFTISQDHAKNSLYLQMNSLRAEDTAVYYCVVGFKFDEDYCAPNDWGQGTMVTVSS |  |  |  | 0.042 nM | 9.2% | 9.9% | 13.3% | 0.005 nM | 0.007 nM | 0.0698 nM | 1.35e-05 s⁻¹ | 193000 M⁻¹ s⁻¹ |  |
| humanized anti-PVRIG antibody 30H2 (antibody, human IgG4 S228P, F234A L235A, V domains shown) VH: EVQLVESGGGLVQPGGSLRLSCAASGFTFSGDCMGWFRQAPGKGLDEGVATIDNAGRIKYADSVKGRFTISRDNAKNSLYLQMNSLRAEDTAVYYCAAGWTFGGQCSPADWGQGTQVTVSS |  |  |  | 0.176 nM | 7.7% | 14.5% | 17.7% | 0.003 nM | 0.005 nM | 1.92 nM | 0.000325 s⁻¹ | 169000 M⁻¹ s⁻¹ |  |
| humanized anti-PVRIG antibody 151H7 (antibody, human IgG4 S228P, F234A L235A, V domains shown) VH: HVQLVESGGGLVQPGGSLRLSCVASASGFTYRPYCMAWFRQAPGKEREAVAGIDIFGGTTYADSVKGRFTASRDNAGFSLYLQMNSLRAEDTAVYYCAAGDSPDGRCPPLGQGLNYWGQGTMVTVSS |  |  |  | 0.038 nM |  |  |  | 0.002 nM | 0.467 nM | 1.2 nM | 0.000188 s⁻¹ | 157000 M⁻¹ s⁻¹ | NK92 killing of K562, killing activity (%), 4 nM antibody [11]: 16.9%; NK92 killing of K562, killing activity (%), 20 nM antibody [11]: 21%; NK92 killing of K562, killing activity (%), 100 nM antibody [11]: 18.4% |
